Source: publication PMC10724393, “FOXA2 Suppression by TRIM36 Exerts Anti‐Tumor Role in Colorectal Cancer Via Inducing NRF2/GPX4‐Regulated Ferroptosis” (Advanced Science, 2023)

B1: GST-FOXA2 (natural protein, human, UniProt Q9Y261 1-457, looked up)
chain: MLGAVKMEGHEPSDWSSYYAEPEGYSSVSNMNAGLGMNGMNTYMSMSAAAMGSGSGNMSAGSMNMSSYVGAGMSPSLAGMSPGAGAMAGMGGSAGAAGVAGMGPHLSPSLSPLGGQAAGAMGGLAPYANMNSMSPMYGQAGLSRARDPKTYRRSYTHAKPPYSYISLITMAIQQSPNKMLTLSEIYQWIMDLFPFYRQNQQRWQNSIRHSLSFNDCFLKVPRSPDKPGKGSFWTLHPDSGNMFENGCYLRRQKRFKCEKQLALKEAAGAAGSGKKAAAGAQASQAQLGEAAGPASETPAGTESPHSSASPCQEHKRGGLGELKGTPAAALSPPEPAPSPGQQQQAAAHLLGPPHHPGLPPEAHLKPEHHYAFNHPFSINNLMSSEQQHHHSHHHHQPHKMDLKAYEQVMHYPGYGSPMPGSLAMGPVTNKTGLDASPLAADTSYYQGVYSRPIMNSS
notes: FOXA2, human cDNA, full length, cloned into pGEX-4T-1-GST; also called purified GST-FOXA2
B2: His-tagged FOXA2 (natural protein, human, UniProt Q9Y261 1-457, looked up)
chain: B1 chain
notes: FOXA2, human; construct and limits of the His-tagged protein are not described; also called His-FOXA2; source: purified

Key:
His-tagged TRIM36 = molecular target: T1, His-tagged TRIM36 (human, UniProt Q9NQ86 1-728); experiment: pull-down; GST fusion on glutathione-Sepharose 4B beads, incubated with purified His-tagged partner for 4 h; eluate blotted with anti-His; GST alone as control; conditions: both partners purified
T1 construct: TRIM36, human; construct and limits of the His-tagged protein are not described; also called His-TRIM36; source: purified
T1 sequence (looked up): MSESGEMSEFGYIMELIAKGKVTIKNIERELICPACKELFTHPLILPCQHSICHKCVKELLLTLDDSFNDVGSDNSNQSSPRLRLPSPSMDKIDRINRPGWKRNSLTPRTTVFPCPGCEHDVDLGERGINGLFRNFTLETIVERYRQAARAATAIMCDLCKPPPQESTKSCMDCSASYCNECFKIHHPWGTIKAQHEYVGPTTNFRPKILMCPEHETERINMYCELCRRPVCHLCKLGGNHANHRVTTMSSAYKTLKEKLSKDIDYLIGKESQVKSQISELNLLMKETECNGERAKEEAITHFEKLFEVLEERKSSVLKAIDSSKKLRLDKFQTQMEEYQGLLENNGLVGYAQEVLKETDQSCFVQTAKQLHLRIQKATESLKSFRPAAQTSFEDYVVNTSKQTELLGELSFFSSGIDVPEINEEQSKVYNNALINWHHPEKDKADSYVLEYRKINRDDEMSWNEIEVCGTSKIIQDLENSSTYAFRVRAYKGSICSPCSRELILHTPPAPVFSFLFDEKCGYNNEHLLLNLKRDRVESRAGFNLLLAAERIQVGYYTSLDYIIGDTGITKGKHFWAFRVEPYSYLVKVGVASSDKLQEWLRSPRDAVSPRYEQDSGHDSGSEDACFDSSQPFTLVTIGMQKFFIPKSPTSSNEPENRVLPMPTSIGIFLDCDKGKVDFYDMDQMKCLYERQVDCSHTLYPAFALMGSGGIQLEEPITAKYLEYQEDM

GST-TRIM36 = molecular target: T2, GST-TRIM36 (human, UniProt Q9NQ86 1-728); experiment: as above; conditions: both partners purified
T2 construct: TRIM36, human cDNA, full length, cloned into pGEX-4T-1-GST; also called purified GST-TRIM36
T2 sequence (looked up): T1 sequence (looked up)

Row | Binder | binding result (His-tagged TRIM36) | binding result (GST-TRIM36)
1 | B1 | binds | 
2 | B2 |  | binds
